Assay results from patent US20060110789A1, “Methods to mediate polyketide synthase module effectiveness” (priority 2002, published 2006).

Key:
Assay type in all cases: biochemical
(5)M2+TE [1] = target: T1, (5)M2+TE (Saccharopolyspora erythraea, UniProt Q03131+Q03133); assay: Substrate transfer and elongation assay, acceptor DEBS module 2; details: 20 μM substrate, 2 hours
T1 construct: The protein was, in each case, a single module of the DEBS PKS fused to the thioesterase (TE) termination region of module 6; first 39 amino acids of module 5 (N-ERL); made in house; host or cells: E. coli (BL21(DE3) with sfp)
Description: (§1) Substrate transfer and elongation assays. Qualitative assays were performed with a diketide-ACP or diketide-PCP substrate either taken directly from the so phosphopantetheinlyation reaction or after further purification of the substrate. These assays were performed with 20 μM diketide-ACP/PCP substrate for 2 hours in the following reaction conditions: 1 μM acceptor module, 0.5 mM ^14C-methylmalonyl CoA, 4 mM NADPH in buffer C, 30° C. After quenching by addition of 250 μL EtOAc and vortexing, the products were extracted with 2×250 μL EtOAc, resolved on a silica gel TLC plate, and visualized on a Packard InstantImager.
(§2) The kinetics of substrate transfer at the module 2-module 3 interface followed by elongation and product release were examined as a function of the k60 μM and kcat/KM values of the overall reaction. […] In many cases, the k60μm values approximate the maximal overall turnover rates, as determined by back calculating the KM value for the reactions. True saturation kinetics were not practical because of the technical limitations (e.g., solubility) and limited supply associated with high molecular weight substrates such as diketide-ACP and diketide-PCP. kcat/KM values were determined by competitive assay of the substrate of interest against a substrate with a known kcat/KM value, as previously described (Wu, et al., (2001) J. Am. Chem. Soc. 123, 6465-6474). […]

(5)M6+TE = target: T2, (5)M6+TE (Saccharopolyspora erythraea, UniProt Q03133, DEL53-1503); assay: Substrate transfer and elongation assay, acceptor DEBS module 6; details: 20 μM substrate, 2 hours
T2 construct: The protein was, in each case, a single module of the DEBS PKS fused to the thioesterase (TE) termination region of module 6; first 39 amino acids of module 5 (N-ERL); made in house; host or cells: E. coli (BL21(DE3) with sfp)
Description: as §1, §2

(5)M2+TE [2] = target: T1, (5)M2+TE; assay: Labeling of holo-ACP4(4) with 14C-2a mediated by (5)M2+TE (back-transfer); details: 20 μM holo-ACP4(4), 1 mM 14C-2a, with and without 1 μM (5)M2+TE
Description: Labeling of Holo-ACP4(4) with ^14C-2a Mediated by (5)M2+TE. Holo-ACP4(4) (20 μM) was incubated with 1 mM [1-^14C]-labeled 2a (custom synthesized by Amersham Pharmacia, specific activity 55 mCi/mmol) and 1 μM (5)M2+TE in reaction buffer C for 10 min at 30° C. The protein was precipitated with 75% acetone/H2O for 5 min at −80° C. After washing the pellet with 6.25% (w/v) TCA to remove excess salts followed by 500 μL of 75% acetone/H2O to remove residual, unbound 14 C-2a, the precipitated protein was resuspended in 8 μL of buffer A and 4 μL of SDS sample buffer, and resolved on a 420% SDS-PAGE gradient gel (Bio-Rad). The proteins were visualized with Coomassie blue stain and dried, and the radioactivity was detected either on a Packard InstantImager or by exposing the gel to X-ray film.

B1: diketide-eryLDD(Ø): diketide on the DEBS loading didomain with no C-terminal linker (conjugate)
chain: MSGPRSRTTSRRTPVRIGAVVVASSTSELLDGLAAVADGRPHASVVRGVARPSAPVVFVFPGQGAQWAGMAGELLGESRVFAAAMDACARAFEPVTDWTLAQVLDSPEQSRRVEVVQPALFAVQTSLAALWRSFGVTPDAVVGHSIGELAAAHVCGAAGAADAARAAALWSREMIPLVGNGDMAAVALSADEIEPRIARWDDDVVLAGVNGPRSVLLTGSPEPVARRVQELSAEGVRAQVINVSMAAHSAQVDDIAEGMRSALAWFAPGGSEVPFYASLTGGAVDTRELVADYWRRSFRLPVRFDEAIRSALEVGPGTFVEASPHPVLAAALQQTLDAEGSSAAVVPTLQRGQGGMRRFLLAAAQAFTGGVAVDWTAAYDDVGPNPALCRSSRRPRRKTSRPSPASTGTRHRTCCERLLAVVNGETAALAGREADAEATFRELGLDSVLAAQLRAKVSAAIGREVNIALLYDHPTPRALAEALAAGT
modifications: non-natural residues
notes: diketide on the DEBS loading didomain with no C-terminal linker
With B1 the “qualitative transfer of diketide to (5)M2+TE” value ((5)M2+TE [1]) was “able to channel the diketide substrate” and the “qualitative transfer of diketide to (5)M6+TE” value ((5)M6+TE) was “able to channel the diketide substrate”.

B2: holo-ACP4(4): phosphopantetheinylated DEBS ACP4 domain with its natural C-terminal linker (protein)
chain: HHHHHHNVVDRLAGRSESDQVAGLAELVRSHAAAVSGYGSADQLPERKAFKDLGFDSLAAVELRNRLGTATGVRLPSTLVFDHPTPLAVAEHLRDRLFAASPAVDIGDRLDELEKALEALSAEDGHDDVGQRLESLLRRWNSRRADAPSTSAISEDASDDELFSMLDQRFGGGEDL
B2 was tested, and the “radiolabeling of the ACP by 14C-2a” value ((5)M2+TE [2]) was “radiolabeled only in the reaction containing (5-M2+TE”.

B3: diketide-ACP2(Ø): diketide on isolated ACP2 domain without linker region (conjugate)
chain: HHHHHHDRLAGLPRAERTAELVRLVRTSTATVLGHDDPKAVRATTPFKELGFDSLAAVRLRNLLNAATGLRLPSTLVFDHPNASAVAGFLDAELG
B3 was tested, and the “qualitative transfer of diketide to (5)M2+TE” value ((5)M2+TE [1]) was “able to channel the diketide substrate” and the “qualitative transfer of diketide to (5)M6+TE” value ((5)M6+TE) was “able to channel the diketide substrate”.
